Assay results from publication PMC6313406.

Molecular target: Dimeric Lip3 (isoenzyme 3 of Candida rugosa lipase) (Candida rugosa) (UniProt P32947)
Assay: SEC; Sephacryl S200 column (1.6x60 cm), 25 mM Tris/HCl pH 7.5, 0.15 M NaCl, 0.3 mL/min, no detergent; calibrated with the high molecular weight marker kit

stoichiometry N: 2
Substance: Dimeric Lip3 (isoenzyme 3 of Candida rugosa lipase) (from UniProt P32947 16-549)
